Experimental data reported in the domain aggregation screens of Martell et al. (2025).

Experiment: soluble fraction after stress (log2 fold change); higher = more stays soluble; pooled small domains, quantitative proteomics
Conditions: stress: 50 degC
Method in brief: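 After stress at 50°C, the amount of each protein still soluble was measured. This was done on pooled custom libraries of small protein domains, using high-throughput quantitative proteomics. The figure given is a base-two log fold change and stands for aggregation propensity, with higher values meaning more protein stays in solution.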

Sequence | soluble fraction (log2)
HMKQGKGIIVVDGKLMPEDFNVATLSLDEVESITVLKGEKAVALYGEKAKEREVLLITTQKG | 0.423
HMVSTDPVHLFNLGTANRRAGRASEAITSYRKFMEAAPQHPQVPEARAYIHDMEVLLQERQKSEQAASQLS | 0.0843
HMQELVPGKVFEGTVTEMKNGQVTLGLSDGKTISARMEQGVSLAKGQPMLFEVKSNTGEQIAIRPVVL | 0.169
HMLGDIYISIPRAKLQAEEYGHSFKRELAFLAVHGFYHLLGYDHQTKEEEEVMFGKQEEVLAEFDIKR | -0.218
HMHNISQTGRRIAGMTQERWAEALDISVESVRLYESGRGMPSDDVATRMVEVSGAPVLGYWH | -0.407
HMEMKVIPFNQMTRDQFDQLDRFLGRLAAAQAMGSLRLTKAQQNYFLNQVKQLDLYRKRILN | -0.787
HMDEVLDQFVRGQIYGYIRANPGDIYSSIRDNLGLKNGVTTYHLDVLAREEYVYSEIDGTNRRFYPSGWEE | -3.2
HMFLPETEVKSFFHRGITKISPSLAMDIADFFRMPFAVILKRALALEVISDEQYRSFMTVKPEHV | -0.014
HMDEVVVVERGGVQITMSEIDAKIMELPVDVRPSYLDSPERLQNFVSNLLLEKQAAQLKSQY | -0.153
HMYRLDVEISDEIKRDIDEETLSEIKGIIAEDPRPSYQNDETRIYRFTFAGREISFRVKDRTATVTEIL | -0.0821
HMHPSNQELTKVLAQGSELVLAQKYIEASQIFTRVIEIDQTWAEAWNKRATVFYLLQNYEASQKDIDEV | 0.0182
HMIYKLTLLRDLPEAKAGFDFYLRGGLASHDGEEWFSWVTREPIYARLYWLYVEKREEWVLVEETDI | -4.46
HMSGEPKNERQIEVPDVTKKSIREANNILTSEGLRLRIEGTGLAVSQKPAAGTMVEPDTIITVTFQAP | 0.35
HMSADDSDDRKGIDAWLTQLLANGSVKATEVYSAADAAGYSKDQAKRAKRRLAIEAVREAMDGPWFWRLD | -0.616
HMENVVESIYNKMVESITNGQWAAGSKIPTENELAKTYQVSRSSVRQAISRLKALGLLESRQGSGTVIKK | 0.272
HMVEREYRLEVPPEAEGKRLDQFLVNQPVQLSRSQVQHLIQNGLVLVNAKTRRSSYRVHTGDIIEMQVPA | 0.327
HMEIALNDKQILLFSNKLVHEPSFASKYSKVGESYDDFAIRISENLTIPDKVQEYLPYLEKVGFNI | -0.00852
HMGIERTNADTSFSVNVYGKELIITSNKPLVVNIYAIDGTLVRTEQVTIGVNTVSGLPSGIYVVGQQKVVI | 0.297
HMKIDLTPQEEKIYSVLETELTLDEIIMKTSIKAGEALAILMDLELKKLVASVAGGKYRRKA | 0.0271
HMKPDMAVIVGSRTLTFATTTDRQILVLRTDGTMVNRLSMKAGETRTITLPAGVYIVNGKKIIV | -0.808
HMTSEVLTNATIVKMVKAKLSDDIIIDEINNARVNFDVSPEGIKSLTAQNVTEPVIETMKKAVAAQESI | 0.479
HMSTFAQNLRALMEKRGVSQNELARSAGLTQSAINKILTGKTKQPGIDTTEAIARVLNVSVAQLIYT | -0.303
HMEEMTIRQKRTMIFFIEATKHILQEDGYDHLTIREIAQRAGYNAATLYHYFRDLDELIIYGSVG | -0.238
HMTKASEELYFRLKEELGTGVIVEHKKYGEGVVTQLDDRLVHIMFQDDTLRMMDLKILANAGLLKVK | 0.189
HMFYNSSDNAYKILEINKSATVDEIKAAYRKMAKKYHPDKVIHLGQEHQKGAEEKFRQVQEAYEELQKERG | 0.0887

Sequence | soluble fraction (log2)
HMEYKNYYDSPVGRLELLSDGVSLTAVLFENQQGDGTREENTSLAIFKEATQWLDAYFKGDNPEITIPL | 0.0756
HMANEGWDIYKLDIRNHKQPNGEYYSEKEIQSTINNTFGKGSFNVDWKKYEKDKEYREKTNYYYFQAKYFV | -0.19
HMESTLNYSQFLSLVNEDRVAEVVIQGKELYVTDVNRSRFKVYAPPDPELIGLLRQKRVIISAKP | -0.0196
HMKNNITFSEFLHEVDNGRVIKVNIQGNNITGILADGKSFNTYTPNDPSLIEKLTSKGVSISATPI | 0.0489
HMKSVFQPIYEDLLSRIQDGRLLPGMPLPSENALAVQYGTSRPTIRRAIGLLVEKSLVIRQPGIGSIVAS | -1.17
HMARTGSEELVGALATVREPLAPWGQVFVQGALWRARSADGGPVDAGQQVVVRAVEGLTLVVEPRD | 0.00428
HMARNHYETLGVGRTATGDEIRKAYRSEAQKHHPDRGGDAERMQSLNEARDTLLDDQARAAYDQELDL | 0.125
HMSPFAHHLHELRMRHGIRQNELAELIGYDQTYISALEVGLKGPPTPEFVDKLVEGLALSRTEEAALRSAA | -0.482
HMGKPSSEELEALGRRTLEENVDVVEEILGGRDPKGKKIKYLEGLMMRALRGQETPEAVRRTLEELIFK | 0.0847
HMSDHKNANFTKVVKVAQELLQDEDDKAGITPTLIEEKISAVLAMNRRWAEGLDRAAVADELIRRFSIW | -0.42
HMGLSIPLMGAKASDIEISTLNDEVQRKLKIIVKEQGHENLQRVVPLPSEAREIQAHFINGRLHLR | -0.0466
HMTWDSFIGYTVTDVQKGYLGEITDVDETTINVLLRVDHKGEELLIPAVEELITEADHEARSLTVSLPEGL | -0.0571
HMYPEDMMSLMRRALRLINHLESNRKDRHNSRQLELTESKIRRLARYYKGRGLIETEWAYKRDQLRLLV | -0.398
HMEIPMRDKLKTYIDYLFAGAPQTAATAETKAEILQNTLDKYDDLIAEGKTPEAAYSLAVSGIGDLGDF | -0.0827
HMSLEDMILSLSSRIRRGESLHFRELLVAIETKSGMVTIFMAVLELLKQQVMEMRYEDDDIIFT | -0.912
HMSDPSAQADALFNEGKTAEAFNVLLRLIEDSPEDQREDYRVRLLDLFRIAGNTPEVKAARRRLSALLM | -0.252
HMKTRYPNVYQDEKGKFFYQIFIGTDTNGRKKLKKGRRDALGHPFSSAYQASKEAKRVQALYANVS | -1.23
HMDFSERLARAMSLAGYTQGRLAKEVGMAQSSVNKLLNGANGSRKTVEIASVLGVRPEWLSTGAGEML | -0.371
HMGIVVDGTMTLEGVAERYGMSVGELARVIGVPPEYSNERLGRLRKSYEFEMDDIRIYIIQKQ | -1.31
HMSDRFVRIVMNDGTVKLGQMISEDADFIRLKTNNLGELNIPKYLVLDMMDLTRSEYVRLSISNAG | 0.169
HMVVANTAIKSELQNIVANENKQAPLSDQKIVDQLKQAGFDISRRTVVKYRDALGIPTSRNRKR | -0.131
HMKDYQGEISVVASGERIDVYLFNYFNLFSRTKIKNHIKNGNILVNENIISPSYILKQNDKIAFNLGAPY | -2.39
HMLKKGDQVYIISGKDKGKLGVVSQIVSEERILVDGINLAKKHVKPNPNKNETGGVVEKEMPIHASNVMI | -0.0911
HMDKQEKIHKKKIIILEALKRLLQNDVYSRITVQAVADEAGFSKGGLLHYFPTKEEMYIEFMEY | -0.0218
HMRNAAGGIYGWMTLHQVAETVKLTEEEVIAITNLPAGIPRDVSLKNIEGVNDEELRALLEAYLEKQ | -0.151

Sequence | soluble fraction (log2)
HMVLALRGIVQGGAEPLVILSDGRTSQSLAVGERFLAYEVVEIGRTGVRLRGPEGEIWLAMASF | -0.322
HMENLSFNINSEEEGQRIDKYLSVMIEGKSRSFVQGLIEEKKVKANSKVIKSNYKLKKGDFIEVEVPEPV | 0.27
HMTTKYMVLVNWVKEKVRTNELKTGEKLYSEHEFSRMFHMSRQTVRHGISILERENIVERRQGSGTFIKDA | -3.06
HMEAKSSTKALLDVVLGRNGVSTANVAKSLNISVQNASTRLKKLSSEGVIMRSEVSSPTGGIEFIYS | -0.0504
HMTKYKEIVDQLRTNIYEGVFPALSKLPEQTALAKRFQTSRMTIQKALNQLKQEGLISTKRGHGTYVNSAT | -0.298
HMISRDPYDAGAIKRHFSASGLFSSKELAHYLGKSVSTAKNVLSDLQQQGIVEMVGQGPATKYRFI | 0.343
HMKNENSLLVSRLAEEKIINRAKLVLMEYLKLSEPQAHRYIEKQAMDLQISRAEVAARVLETYE | -0.0477
HMAVANEAIANINMKEVKQAIHNLPEIFKNPFLLYFDGYKYHEIAEMLDEPLGTIKSRIHFARKLLKSHI | -0.674
HMKSFIWKQYTVQITKKNVKNTNVRIKRDNPHVILMSIPYSATYKAGLLALETPHIRHWLDNYERKLKQ | -1.48
HMGIAERKEKQKLEIRNAILEASRKLIVEEGFEKVTMRKIADLIEYSPTTVYLYFKDKNEILFHLHQ | -1.37
HMENNIILNYVKDNLNITEKDAKDLIELLGSDYYHIKNETNKIAAFLDGQPYSFEKIKNLISIDKEY | 0.0808
HMIFDPTTLPEKQLLVYGIISSHPGLNAKQISEMLTLKKSSIETAIKGLRKKEIIEYEGTTRNGG | -0.182
HMIDIIEYIISEESKGLRADQGIALQNPQYSRSLIQKWIKKGSVLVNNKIIRTKEILLEGDKISITPEENI | -0.384
HMDDLFGNAIEMFNNQRYDMTYELLVQLLSETPNNEKAWQLLADTKFMLGDYDDALHIVGKAAK | -0.89
HMSTPENLGGRNTAKARISWLENGVKQELESDFPAAEVVKLSSRFGGEVPELTVIRPSLEDIYLKMIG | 0.0409
HMRSEILNLLREKSPQPVSGQDLANHFGITRTAVWKHIQSLKKMGYGIEAYTKKGYVLVSVPN | -0.0638
HMQPMIQIHTLANHAPVALHIKRNTQRNIIIRARDASSLNLSIPKWFSPAQLQNWLRDNEATLIRILQQAP | -2.49
HMAVSSYSVKRYIRNMIQAEDPSAPFSDEALRLALLAHGIAVSRRVVTKYRMAMDIPSSSQRRKR | -0.866
HMDGVLLDHLDGFVTTRRGVEAWLEQPTSFNKPSILLVAADGESTRRAIPSIAFGYDFASRHDIPAYDAG | -0.496
HMDATGDPIADRILQALQLGELTRTQVNNVFQRHLAAARISQALNFLRSLKRADMRMEETAGRSGEVWFAI | -0.341
HMYHADLIGLEARSTAGDKLGEVNAVYNFGAGDLIEIKMTDGNLEMLPFTRQYVPTVSIKDGFIIVQM | -0.628
HMIEDMTINIEERLSLNGDIKKSEYILQYIKPDFIRKVILSPELNKGEIYIYDSKKKVMYLPLFDQVSEEI | -0.463
HMEQVVFNGTGRRKSSIARVRIMSGKGNITVNGKALDEYFGEETLKVIVRQPLTVTDTLDKYDVIATVK | 0.203
HMTDDFAGRFNELLIHNQETAVTAATRLEVSPAVITKWRQGKSIPSGEYIKRIVETYHVSADYLLGVIDTP | -0.445
HMVKPKIILADIGMITETDVTLAKASQAVLIAFNVKPSKEAKKLAEDENIKISTYNIIYEVLDFVKKSMSG | 0.12
